Assays:
Experiment in all cases: cell-based or functional assay
[1] = biological target: recombinant human Factor IXa K126A/K132A/R150A (human) (UniProt P00740)
[2] = biological target: recombinant human Factor IXa K126A/R150A (human) (UniProt P00740)
[3] = biological target: recombinant human Factor IXa K126A/K132A (human) (UniProt P00740)
[4] = biological target: recombinant human Factor IXa K126A (human) (UniProt P00740)
[5] = biological target: human plasma-derived Factor IXa (human) (UniProt P00740)
[6] = biological target: recombinant human Factor IXa K132A/R150A (human) (UniProt P00740)
[7] = biological target: recombinant human Factor IXa K132A (human) (UniProt P00740)
[8] = biological target: recombinant human Factor IXa R150A (human) (UniProt P00740)
[9] = biological target: recombinant human Factor IXa wild-type (human) (UniProt P00740)

Q: Which k2, inhibition of FIXa by ATIII/Fond (460 nM fondaparinux) [1] does the source give for “human plasma-derived antithrombin (from UniProt P01008 33-464)” here?
A: Its k2, inhibition of FIXa by ATIII/Fond (460 nM fondaparinux) is 68.3 M⁻¹ s⁻¹.

Q: And the k2, inhibition of FIXa by ATIII/UFH (0.24 U/mL) [1]?
A: The k2, inhibition of FIXa by ATIII/UFH (0.24 U/mL) was 6.67 M⁻¹ s⁻¹.

Q: And the k2, inhibition of FIXa by ATIII/Fond (460 nM fondaparinux) [2]?
A: The k2, inhibition of FIXa by ATIII/Fond (460 nM fondaparinux) was 63.3 M⁻¹ s⁻¹.

Q: And the k2, inhibition of FIXa by ATIII/Fond (460 nM fondaparinux) [3]?
A: Its k2, inhibition of FIXa by ATIII/Fond (460 nM fondaparinux) is 2640 M⁻¹ s⁻¹.

Q: And the k2, inhibition of FIXa by ATIII/UFH (0.24 U/mL) [3]?
A: The k2, inhibition of FIXa by ATIII/UFH (0.24 U/mL) was 423 M⁻¹ s⁻¹.

Q: What about the k2, inhibition of FIXa by ATIII/Fond (460 nM fondaparinux) [4] of the same substance?
A: Its k2, inhibition of FIXa by ATIII/Fond (460 nM fondaparinux) is 3300 M⁻¹ s⁻¹.

Q: What about the k2, inhibition of FIXa by ATIII/UFH (0.24 U/mL) [4] of the same substance?
A: The k2, inhibition of FIXa by ATIII/UFH (0.24 U/mL) was 1560 M⁻¹ s⁻¹.

Q: What about the k2, inhibition of FIXa by ATIII/Fond (460 nM fondaparinux) [5] of the same substance?
A: Its k2, inhibition of FIXa by ATIII/Fond (460 nM fondaparinux) is 3520 M⁻¹ s⁻¹.

Q: And the k2, inhibition of FIXa by ATIII/UFH (0.24 U/mL) [5]?
A: Its k2, inhibition of FIXa by ATIII/UFH (0.24 U/mL) is 3430 M⁻¹ s⁻¹.

Q: And the k2, inhibition of FIXa by ATIII/Fond (460 nM fondaparinux) [6]?
A: Its k2, inhibition of FIXa by ATIII/Fond (460 nM fondaparinux) is 68.3 M⁻¹ s⁻¹.

Q: What about the k2, inhibition of FIXa by ATIII/Fond (460 nM fondaparinux) [7] of the same substance?
A: Its k2, inhibition of FIXa by ATIII/Fond (460 nM fondaparinux) is 3250 M⁻¹ s⁻¹.

Q: And the k2, inhibition of FIXa by ATIII/UFH (0.24 U/mL) [7]?
A: The k2, inhibition of FIXa by ATIII/UFH (0.24 U/mL) was 3740 M⁻¹ s⁻¹.

Q: And the k2, inhibition of FIXa by ATIII/Fond (460 nM fondaparinux) [8]?
A: Its k2, inhibition of FIXa by ATIII/Fond (460 nM fondaparinux) is 71.7 M⁻¹ s⁻¹.

Q: And the k2, inhibition of FIXa by ATIII/UFH (0.24 U/mL) [8]?
A: The k2, inhibition of FIXa by ATIII/UFH (0.24 U/mL) was 262 M⁻¹ s⁻¹.

Q: And the k2, inhibition of FIXa by ATIII, no heparin [9]?
A: The k2, inhibition of FIXa by ATIII, no heparin was 51.7 M⁻¹ s⁻¹.

Q: What about the k2, inhibition of FIXa by ATIII/Fond (460 nM fondaparinux) [9] of the same substance?
A: Its k2, inhibition of FIXa by ATIII/Fond (460 nM fondaparinux) is 3290 M⁻¹ s⁻¹.

Q: And the k2, inhibition of FIXa by ATIII/UFH (0.24 U/mL) [9]?
A: The k2, inhibition of FIXa by ATIII/UFH (0.24 U/mL) was 4330 M⁻¹ s⁻¹.

— US20160122739A1
